Measurements taken from patent publication US20250032632A1 (published 2025).
Positions count from the first letter of the chain named. Names may count otherwise.

What was measured:
[1] = target: human cMET-Fc fusion protein (extracellular domain of human cMET fused to human Fc) (human) (UniProt P08581); assay: SPR with hMet-Fc
[2] = target: T1, human cMET-Fc fusion protein (extracellular domain of human cMET fused to human Fc) (human, UniProt P08581 25-932); assay: SPR, hMET-Fc
T1 construct: Mature cMET is cleaved into alpha and beta subunits; also called hMET-Fc; hMet-Fc

rat cMET-Fc = target: T2, rat cMET-Fc (rat, UniProt P97523 25-935); assay: SPR, rMET-Fc
T2 construct: Construct named only as rMET-Fc; also called rMET-Fc; not shown: Fc part

[3] = target: T1, human cMET-Fc fusion protein …; assay: SPR with hMet-Fc
[4] = target: mouse cMET (ELISA antigen) (mouse, UniProt P16056 25-931, limits assumed); assay: ELISA, cross-reactivity, mouse cMET
rat cMET (ELISA antigen) [5] = target: T3, rat cMET (ELISA antigen) (rat, UniProt P97523 25-935, limits assumed); assay: ELISA on rat cMET, relative to parental P3D12
T3 construct: also called rMET

[6] = target: T4, human cMET (ELISA antigen) (human, UniProt P08581 25-932, limits assumed); assay: ELISA on human cMET, relative to parental P3D12
T4 construct: also called hMET

[7] = target: T5, mutant cMET (E168D) Fc recombinant fusion protein (human, UniProt P08581 25-932); assay: binding ELISA, plate-coated E168D cMET-Fc, goat anti-human IgG (H+L)-HRP (FIG. 16)
T5 construct: also called E168D cMET; E168D cMET extracellular domain fused to human IgG1 Fc; not shown: Fc of human IgG1
Procedure: The E168D mutation is a somatic mutation found in small cell lung cancer (SCLC). The mutation is located in the Sema domain and leads to constitutive activation of the cMET receptor. Abundance of somatic mutations of cMET are very low. E168D occurs in 0.8% to 3% of SCLC patients. A binding ELISA was performed with human cMET or E168D cMET extracellular domains fused to human IgG1 Fc. cMET proteins were coated on a plate overnight and the samples titrated and detected with a goat anti-human IgG (H+L)-HRP. EC₅₀s were determined using sigmoidal dose response fit.

[8] = target: T6, Recombinant Human c-Met-10X His (human, UniProt P08581 25-932); assay: cMET binding ELISA, plate-bound human cMET (FIGS. 24A, 24B)
T6 construct: In-house reagent (Lot #140924TA); not shown: 10X His tag
Procedure: The antibody drug conjugates were tested at increasing concentrations (x-axis, concentration of antibody-drug conjugate (μg/ml)) for their ability to bind plate-bound human cMET. Relative binding strength is indicated by luminescence (y-axis).
PMID: 5257969. The payload of chemical formula II was site-specifically conjugated to each of the mutated cysteine residues using Maleimide chemistry. The quality and extent of conjugation was assessed by a determination of total recovery, aggregate content, monomer content and drug-antibody ratio (DAR).

rat cMET (ELISA antigen) [9] = target: T3, rat cMET (ELISA antigen); assay: ELISA, cross-reactivity, rat cMET

T3 sequence (P97523 25-935 limits assumed): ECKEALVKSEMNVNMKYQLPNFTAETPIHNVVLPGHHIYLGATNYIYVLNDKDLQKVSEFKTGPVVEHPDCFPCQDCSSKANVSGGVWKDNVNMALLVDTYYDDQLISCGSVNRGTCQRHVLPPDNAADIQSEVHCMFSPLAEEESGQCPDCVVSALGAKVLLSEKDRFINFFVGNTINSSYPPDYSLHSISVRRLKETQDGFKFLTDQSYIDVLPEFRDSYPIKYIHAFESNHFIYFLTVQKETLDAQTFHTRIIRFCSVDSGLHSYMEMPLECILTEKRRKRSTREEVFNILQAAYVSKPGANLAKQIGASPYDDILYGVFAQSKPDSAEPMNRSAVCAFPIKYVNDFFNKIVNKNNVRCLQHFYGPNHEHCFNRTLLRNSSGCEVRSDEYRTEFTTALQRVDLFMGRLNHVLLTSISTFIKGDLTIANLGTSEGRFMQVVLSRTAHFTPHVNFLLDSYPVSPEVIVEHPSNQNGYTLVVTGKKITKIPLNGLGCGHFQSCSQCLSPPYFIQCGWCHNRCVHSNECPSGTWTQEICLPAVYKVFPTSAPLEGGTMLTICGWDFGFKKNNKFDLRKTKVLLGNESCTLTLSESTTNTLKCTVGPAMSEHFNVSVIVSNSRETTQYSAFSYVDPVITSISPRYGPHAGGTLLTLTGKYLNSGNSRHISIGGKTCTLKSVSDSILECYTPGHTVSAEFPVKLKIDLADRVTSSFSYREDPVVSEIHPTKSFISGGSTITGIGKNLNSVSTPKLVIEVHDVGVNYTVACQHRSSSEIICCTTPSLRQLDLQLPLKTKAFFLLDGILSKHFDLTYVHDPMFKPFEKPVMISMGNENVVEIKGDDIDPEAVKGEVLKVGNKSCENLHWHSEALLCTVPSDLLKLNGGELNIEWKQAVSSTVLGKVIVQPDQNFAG
mouse cMET (ELISA antigen), sequence (P16056 25-931 limits assumed): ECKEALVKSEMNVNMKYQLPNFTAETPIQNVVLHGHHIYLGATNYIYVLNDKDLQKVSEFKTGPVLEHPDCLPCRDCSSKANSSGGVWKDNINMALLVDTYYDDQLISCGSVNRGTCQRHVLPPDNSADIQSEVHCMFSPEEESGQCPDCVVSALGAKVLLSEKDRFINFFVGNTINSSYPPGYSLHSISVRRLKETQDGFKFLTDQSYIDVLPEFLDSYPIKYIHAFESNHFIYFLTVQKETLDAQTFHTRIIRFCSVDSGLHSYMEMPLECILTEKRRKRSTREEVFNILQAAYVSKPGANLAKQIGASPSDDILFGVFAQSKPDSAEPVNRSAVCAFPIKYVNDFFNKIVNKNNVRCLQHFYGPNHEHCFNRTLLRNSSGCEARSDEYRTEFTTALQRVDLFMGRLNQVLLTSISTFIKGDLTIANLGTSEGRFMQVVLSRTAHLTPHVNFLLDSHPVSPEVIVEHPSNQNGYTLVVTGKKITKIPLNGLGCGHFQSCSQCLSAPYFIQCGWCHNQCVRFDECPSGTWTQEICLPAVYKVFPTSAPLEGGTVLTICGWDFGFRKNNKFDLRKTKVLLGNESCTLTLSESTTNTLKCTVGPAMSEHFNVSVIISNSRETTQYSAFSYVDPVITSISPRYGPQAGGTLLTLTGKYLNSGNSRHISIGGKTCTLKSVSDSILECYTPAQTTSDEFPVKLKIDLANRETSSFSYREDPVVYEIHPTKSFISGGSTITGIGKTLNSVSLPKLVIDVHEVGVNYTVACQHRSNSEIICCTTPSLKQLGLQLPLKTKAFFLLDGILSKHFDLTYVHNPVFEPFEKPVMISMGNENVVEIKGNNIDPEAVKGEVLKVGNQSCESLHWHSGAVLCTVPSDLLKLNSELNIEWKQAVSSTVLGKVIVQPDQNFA
T1 sequence (P08581 25-932): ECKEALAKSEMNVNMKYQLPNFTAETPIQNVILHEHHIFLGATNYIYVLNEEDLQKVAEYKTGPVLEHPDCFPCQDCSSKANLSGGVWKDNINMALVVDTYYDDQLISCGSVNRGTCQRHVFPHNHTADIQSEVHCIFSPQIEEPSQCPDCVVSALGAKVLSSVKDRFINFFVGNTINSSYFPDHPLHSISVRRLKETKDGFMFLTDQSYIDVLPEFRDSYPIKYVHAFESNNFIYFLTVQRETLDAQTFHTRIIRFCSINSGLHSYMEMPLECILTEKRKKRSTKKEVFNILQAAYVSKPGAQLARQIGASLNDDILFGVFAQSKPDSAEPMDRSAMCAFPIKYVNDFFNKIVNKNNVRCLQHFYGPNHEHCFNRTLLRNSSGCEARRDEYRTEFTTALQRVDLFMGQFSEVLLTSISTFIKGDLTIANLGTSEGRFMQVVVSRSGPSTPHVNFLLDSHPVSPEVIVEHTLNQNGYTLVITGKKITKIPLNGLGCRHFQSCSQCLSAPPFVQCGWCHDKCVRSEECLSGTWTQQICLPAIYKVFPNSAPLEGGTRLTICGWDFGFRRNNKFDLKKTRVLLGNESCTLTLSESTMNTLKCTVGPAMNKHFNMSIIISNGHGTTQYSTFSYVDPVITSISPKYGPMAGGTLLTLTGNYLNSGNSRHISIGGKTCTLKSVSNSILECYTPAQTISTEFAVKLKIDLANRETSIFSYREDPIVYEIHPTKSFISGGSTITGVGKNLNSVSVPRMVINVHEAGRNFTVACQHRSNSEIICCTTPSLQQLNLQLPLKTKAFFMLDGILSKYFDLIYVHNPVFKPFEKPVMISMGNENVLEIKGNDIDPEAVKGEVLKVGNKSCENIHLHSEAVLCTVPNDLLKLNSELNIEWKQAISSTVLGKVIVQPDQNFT
T2 sequence (P97523 25-935 limits assumed): as the sequence (P97523 25-935 limits assumed) above
T5 sequence (P08581 25-932 E168D): as the sequence (P08581 25-932) above, with E144D counted along it
human cMET-Fc fusion protein (extracellular domain of human cMET fused to human Fc) (human), sequence (P08581 25-932): as the sequence (P08581 25-932) above
T6 sequence (P08581 25-932 limits assumed): as the sequence (P08581 25-932) above
T4 sequence (P08581 25-932 limits assumed): as the sequence (P08581 25-932) above

Molecule: 5D5 (antibody)
- Kd [1]: 0.8 nM

B1: F6B1P3D12 (mouse monoclonal anti-cMET antibody) (antibody, V domains shown)
VH: QVQLQQSGAELAKPGASVKMSCRASGYTFTSYWMHWVKQRPGQGLDWIGYIKPSTDNTEYNQKFKDKATLTADKSSSTAYMQLSSLTSEDSAVYYCARSYGNYPLMDYWGQGTSVTVSS
VL: QIVLTQSPAIMSASPGEKVTLTCSASSSVTSNYLYWYQQKPGSSPKLWIYSTSNLASGVPARFSGSGSGTSYSLTISSMEAEDAASYFCHQWSSYPPTFGSGTKLEIKR
notes: Mouse hybridoma antibody (ATCC PTA-125826); also called Mouse P3D12
- Kd [2]: 0.9 nM
- Kd (rat cMET-Fc): 16 nM
- Kd [3]: 0.75 nM
- binding result [4]: no binding

B2: F6BP2D4 (antibody, V domains shown)
VH: B1 VH with R23K, D46E, K52N, N57Y, T58I, D73G, Y103F
VL: B1 VL with T30S, A61V
notes: Mouse monoclonal antibody
- Kd [3]: 0.48 nM
- binding result [4]: no binding

B3: F6B1P1E2 (antibody, V domains shown)
VH: B1 VH with R23K, D46E, K52N, N57Y, S77T, A97V
VL: B1 VL with T30S, Q38H, A61V
notes: Mouse monoclonal antibody
- Kd [3]: 0.89 nM
- binding result [4]: no binding

B4: hD12 (humanized anti-cMET antibody of IgG2 isotype, VH-cdr SEQ ID NO: 108 + VL-fra SEQ ID NO: 47) (antibody)
heavy: QVQLVQSGAEVKKPGASVKVSCKASGYTFTSYWMHWVKQAPGQGLDWIGYIKPSTDNTEYNQKFKDKATLTADKSTSTAYMELSSLRSEDTAVYYCARSYGNYPLMDYWGQGTTVTVSSASTKGPSVFPLAPCSRSTSESTAALGCLVKDYFPEPVTVSWNSGALTSGVHTFPAVLQSSGLYSLSSVVTVPSSNFGTQTYTCNVDHKPSNTKVDKTVERKCCVECPPCPAPPVAGPSVFLFPPKPKDTLMISRTPEVTCVVVDVSHEDPEVQFNWYVDGVEVHNAKTKPREEQFNSTFRVVSVLTVVHQDWLNGKEYKCKVSNKGLPAPIEKTISKTKGQPREPQVYTLPPSREEMTKNQVSLTCLVKGFYPSDIAVEWESNGQPENNYKTTPPMLDSDGSFFLYSKLTVDKSRWQQGNVFSCSVMHEALHNHYTQKSLSLSPGK
light: QIVLTQSPAILSLSPGERATLSCSASSSVTSNYLYWYQQKPGSSPKLLIYSTSNLASGVPARFSGSGSGTSYTLTISSLEAEDAASYFCHQWSSYPPTFGSGTKLEIKRTVAAPSVFIFPPSDEQLKSGTASVVCLLNNFYPREAKVQWKVDNALQSGNSQESVTEQDSKDSTYSLSSTLTLSKADYEKHKVYACEVTHQGLSSPVTKSFNRGEC
notes: also called G2ckf
- Kd [2]: 0.3 nM
- Kd (rat cMET-Fc): 7 nM
- ELISA rMET vs parental (rat cMET (ELISA antigen) [5]): 0.9 fold vs parental
- ELISA hMET vs parental [6]: 0.7 fold vs parental
- binding result [7]: binds

B5: hD12-T289C-II (hD12 T289C variant site-specifically conjugated to the payload of chemical formula II) (antibody, human IgG2, kappa)
heavy: B4 heavy with T287C
light: B4 light
modifications: payload of chemical formula II on Cys 289 (EU numbering), maleimide chemistry
notes: Antibody-drug conjugate, IgG2
- binding result [8]: binds

B6: F6AP8E2 (antibody, V domains shown)
VH: EVQLQQSGAELVRPGALVKLSCKASGFNINDYFMHWVKQRPEQGLEWIGWIDPENGNTIYDPKFQGKASITADTSSNTAYLQLSSLTSEDTAVYYCARGGNYLRESYYYAMDYWGQGTSVTVSS
VL: DIVMTQSPKSMSMSVGERVTLSCKASENVGTYVSWYQQKPDQSPKLLIYGASNRYTGVPDRFTGSGSATDFTLTISSVQAEDLADYHCGQSYSYPLTFGAGTKLELKR
notes: Mouse monoclonal antibody
- Kd [3]: 0.16 nM
- binding result (rat cMET (ELISA antigen) [9]): no binding
- binding result [4]: no binding

B7: F5P5B9 (antibody, V domains shown)
VH: QVQLKESGPGLVAPSQSLSITCTVSGFSLTNYGVNWVRQPPGKGLEWLGLIWGGGDTDYNSALKSRLSISKDNSKSQVFLKMETNSLQTDDTARYYCARDYYGFDYWGQGTTLTVSS
VL: DVLMTQTPLSLPVSLGDQASISCRSSQTIVHGTGNTYLEWYLQKPGQSPKLLIYKVSNRFSGVPDRFSGSGSGTDFTLKISRVEAEDLGVYYCFQGSHVPYTFGGGTKLEIKR
notes: Mouse monoclonal antibody
- binding result (rat cMET (ELISA antigen) [9]): no binding
- binding result [4]: no binding
